Laboratory results reported in the nanobody polyreactivity screen of Harvey et al. (2022).

Assay: yeast display, Sf9 membrane polyspecificity reagent, FACS + sequencing; frameworks hold sequencing errors
Procedure, shortened: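 Polyreactivity labels are assigned by the sorting gate from which each nanobody was recovered. The gates were low and high (top ~1%), set on anti-HA fluorescence for expression and streptavidin fluorescence for reagent binding. Before sorting, galactose-induced (36–48 hours) yeast display cells were stained for 1 hour at 4 °C with 10% biotinylated, detergent-solubilized Sf9 membrane reagent.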

| Sequence | polyreactivity (PSR sort gate) |
| --- | --- |
| QVQLVESGGGLVQAGGSLRLSCAASGRIFTVNAMGWYRQAPGKESELVASIRYRGSSTYYADSVKGRFTISRDNAKNTVYLQMNSLKPEDTAVYYCAAVVRQYRPPGLYDYWGQGTQVTVSS | high polyreactivity |
| QVQLVESGGGLVQAGGSLRLSCAASGSNFDDNAMGWYRQAPGKERELVAAINSTDITNYADSVKGRFTISRDNAKNTVYLQMTSLKPEDTAVYYCNVDDWGQGTQVTVSS | low polyreactivity |
| QVQLVESGGGLVQAGGSLRLSCAASGSTSIYYTMGWYRQAPGKERELVAYADSVKGRFTISRDNAKNTVYLQMNRLKPEDTAGYYCAAPRTYYSELTSPYDYWGQGAQVTVSS | low polyreactivity |
| QVQLVDSGGGLVQAGGSLRLSCAASGFIFGKNAMGWYRQAPGKERELVAVISWRGSSTNYADSVKGRFTISRDNAKNTVYLQMNSLKPEDTAVYYCAARYPARGTLYYWGQGTQVTVSS | low polyreactivity |
| QVQLVESGGGLVQAGGSLRLSCAASGSTFGGSAMGWYRQAPGKERELVAAISKSGGSTYYADSVKGRFTISRDNAKNTVYLQMNSLKPEDTAVYYCNAPYKRSPYNYWGQGTQVTVSS | high polyreactivity |
| QVQLVESGGGLVQAGGSLRLSCAASGFIFSYYAMGWYRQAPGKERELVAANSSSGGTTYADSVKGRFTISRDNAKNTVYLQMNSLKPEDTAVYYCARVQYWFYKPMYYWGQGTQVTVSS | high polyreactivity |
| QVQLVESGGGLVQAGGSLRISCEAYGSIFGSYAMGWYRQEPGKERELVAGITYRGSSTYYADSVKGRYTISRDNAKNTVYLQMNSLKPEDTAVYYCAADPVFDEYDYWGQGTQVTVSW | low polyreactivity |
| QVQLVESGGGLVQAGGSLRLSCAASGFIFYYYAMGWYRQAPGKERELVAAISSGGSTYYADSVKGRFTISRDNAKNTVYLQMNSLKPEDTAVYYCNARGFYRGYTYYYWGQGTQVTVSS | high polyreactivity |
| QVHLVESGGGLVQAGGSLRISGAASGSTFGTYAMGWYRQAPGKERELVAAITSGGSTDYADSVKGRFTISRDNAKNTVYLQMNSLKPEDTAVYYCTARGYGYLGRKGGYSYGYYYWGQGNQVTVSS | low polyreactivity |
| QVQLVESGGGLVQAGGSLRISCAASGLIFRHNAMGWYRQAPGKERELVAAITGSGSTYYADSEKGRFTISRDNAKNTVYLQMNSLKPEDTAVYYGNADYPGGLQEEDYWGQGTQVTVSS | low polyreactivity |
| QVQLVESGGGLVHAGGSLRLSCAASGSIFEFYAMGWYRQAPGKERELVAAITWDDGSTYYADSVKGRFTISRDNAKNTVYLQMNSLKPEDTAVYYCAASASVRGGGADQYVIAFDYWGQGTQVTVSS | low polyreactivity |
| QVQLVESGGGLVQAGGSLRLSCAASGRTFVANAMGWYRQAPGKERELVAAITSTGSTYYADSVKGRFTISRDNAKNTVYLQMNSLKPEDTAVYYCATYYWLGLSLYDYWGQGSQVTVSS | low polyreactivity |
| QVQLVESGGGLVQAGGSLRLSCAASGITFEYYAMGWYRQAPGKERELVAAIDTGGSTNYADSVKGRFTISRDNAKNTVYLQMNSLKPEDTAVYYCAADWSWWDGEDYHFEYDYWGQGTQVTVSS | low polyreactivity |
| QVQLVESGGGLVQAGGSLRLSCAASGSIFVYYAMGWYRQAPGKERELVAAISKTGGRTYYADSVKGRFTISRDNAKNTVYLQMNSLKPEDTAVYYCAARYTIRYKRYDYWGQGTQVTVSS | high polyreactivity |
| QVQLVESGGGLVQAGGSLRLSCAASGSIFNRYAMRWYRQAPGKERALVAAISRSGSTYYADSVKGRFTISRDNAKNTVYLQMNSLKPEDTAVYYCNARGTTHHTSYDYWGQGTQVTVSS | low polyreactivity |
| QVQLVESGGGLVQAGGSLRLSCAASGIIFQYYVMGWYRQAPGKERELVATISTRGGSTYYADSVKGRFTISRDNAKNTVYLQMNSLKPEDTAVYYCAAPYGTYAYDYWGQGTQVTVSS | high polyreactivity |

| Sequence | polyreactivity (PSR sort gate) |
| --- | --- |
| QVQLVESGGGLVQAGGSLRLSCAASGSIFIWYAMGWYRQAPGKERELVATITSSGSTNYADSVKGRFTISRDNAKNTVYLQMNSLKPEDTAVYYCAKRGPLRHYSWGQGTQVTVSS | low polyreactivity |
| QVQLVESGGGLVQAGGSLRLSCAASGRTFAFNAMGWYRPAPGKERELVAAIRWSGGCTYYADSVKGRFTISRDSPKNTVSLQMNTLKPEDTAVYYCAAYEKRLGYDYWGQGTQVTVSS | high polyreactivity |
| QVHLVESGGGLVQAGGSLRLSCAATGSIFRPYAMGWYRQAPGKERELVATITWRGGTTYYADSVKGRFTISRDNAKNTVILQMISLKPEDSAVYYCAAYVPFLTSAYDYWGHGTQVTVSS | low polyreactivity |
| QVQLEESGGGLVQAGGSLRLSCAASGRIFYYYTMGWYRQAPGKERELVAAISWGGVNTDYADSVKGRFTISRDNAKNTVYLQMNSLKPEDTAVYYCAAGRWSVGTYDYWGQGTQVTVSS | low polyreactivity |
| QVQLVESGGGLDQAGGSLRLSCAASGIIFVKYTMGWYRQAPGTERELVAAISRSGGSTYYADSVKGRFTISRDNAKNTVYLQMNSLKPEDTAVYYCNAVSRKVYPGPMDYWGQGTQVTVSS | high polyreactivity |
| QVQLVESGGGLVQAGGSLRLSCAASGRILTTNAMGRYRQAPGKERELVATISTGSGRTYYADSVKGRFTISRDNAKNTVYLQMNSLKPEDTAVYYCAASRTLRKHRYEYWGQGTQVTVSS | high polyreactivity |
| QVQLVESGGGLVQAGGSLRLSCDASGLIFVDNAMGWYRQAPGKERELVAAIDSGGSTNYADSVKGRFTISRDNAKNTVYLQMNSLKPEDTAVYYCAANTYYWWGIMDYWGPGTQVTVSS | low polyreactivity |
| QVQLVESGGGLVQAGGSLRLSCAASGFIFGDYAMGWYRQAPGKERELVAAIRGSDSTTYYADSVKGRFTISRDNAKNTVYLQMNSLKPEDTAVYYCAAVGVVPRKKSARVYYWGQGTQVTVSS | low polyreactivity |
| QVQLVESGGGIVQAGGSLRLSCAASGSTSRDYAMGWYRTAPGKERELVAAITWSGGRTYYADSVKGRFTISRDNAKNTVYLQMNSLKPEDTAVYYCAAYHREGRRDDYWGQGTQVTVSS | low polyreactivity |
| QVQLVESGGGLVQAGGSLRLSCAASGSIFGRYAMGWYRQAPGKEREFVAAINRSTGSTYYADSVKGRFTISRDNAKNTVYLQMNSLKPEDTAVYYCAARSHSPGYNRRIRGYWGQGTQVTVSS | high polyreactivity |
| QVQLVESGGGLVQAGRSLRLSCAASGSILLYYTMGWYRQAPGKERELVASITSGGRTYYADSVKGRFTISRDNAKNTVYLQMNSLKPEDTAVYYCAADVWKLYDYWGQGTQVTVSS | low polyreactivity |
| QVQLVESGGGLVQAGGSLRLSCAASGFTSRLYAMGWYRQAPGKEREFVAAISWDGTRTYYADSVKGRFTISRDNAKNTVYLQMNSLKPEDTAVYYCNARRRQWQARYDYWGQGTQITVSS | high polyreactivity |
| QVQLVESGGGLVQAGGSLRLSCAASGRTFEYYAMGWYRQAPGKERELVASISFGGGSTYADSVKGRFTISRDNAKNTVYLQMNSLKPEDTAVYYCAATGGWYKHWFDYWGQGTQVTVSS | low polyreactivity |
| QVQLVESGGGLVQAGGSLRLSCAASGSIFSYNAMGWYRQAPGKEREFVAAITSSGTRTYYADSVKGRFTISRDNAKNTVYLQMNSLKPEDTAVYYCAAKPSRYGIGFYWGQGTQVTVSS | high polyreactivity |
| QVQLVESGGGLVQAGGSLRLSCAASGIIIYYNTMGWYRQAPGKEREFVDAISNSGGRTYYADSVKGRFTISRDNAKNTVYLQMNSLKPEDTADYYCAATYRQYSRSPWYYYCGQGTQVTVSS | high polyreactivity |
| QVQLVESGGGLVQAGGSLRLSCAASGSILWYNGLGWYRQAPGKEMELVAAITSGGSTNYADSVKGRFTISRDNAKNTVYLQMNSLKQEDTAVYYCATRHSKYGYEYDYWGQGTQVTVSS | low polyreactivity |
